Laboratory results taken from the Immune Epitope Database (IEDB).

The sequences below were run against HLA-A*02:02 (assay: IEDB peptide-MHC binding, cellular MHC/competitive/fluorescence; ≥ and ≤ were set here for values at or beyond the usual limits of such assays). Details: source organism: Vaccinia virus WR.
Sequence ETQSGALEVL has an IC50 of 5310 nM.
EVRYIDITNI was tested, and the IC50 was 12900 nM.
FANVISKIYT gave an IC50 of 7780 nM.
Sequence FIDRGSIKI has an IC50 of 9720 nM.
Work on FTHTTAFFNT yielded an IC50 of 17200 nM.
With FVVNGHTCM the IC50 was 6640 nM.
For GVLHTKFWI, the IC50 was 16600 nM.
In the case of GVLPEETNI, the IC50 is reported as 17300 nM.
For IAGLKIEEI, the IC50 was 7660 nM.
IIDLLLPST showed an IC50 of 15100 nM.
ITLILSNKL was tested, and the IC50 was 5110 nM.
For IVPDIKLDA, the IC50 was 6390 nM.
In the case of IVQLPKRGV, the IC50 is reported as 12000 nM.
With KADAVVADL the IC50 was 5140 nM.
KTEHCDDFM gave an IC50 of 6500 nM.
LALWDSNFFT showed an IC50 of 11000 nM.
LVIRNEVNDT showed an IC50 of 5500 nM.
Sequence QTVDFTDCRT has an IC50 of 30500 nM.
For SAGFTATICL, the IC50 was 6900 nM.
Work on STTGEWPLI yielded an IC50 of 21100 nM.
For TTENAAYQV, the IC50 was ≥ 70000 nM.
For TVDFTDCRT, the IC50 was 9680 nM.
In the case of VILPDKIDGL, the IC50 is reported as 8090 nM.
In the case of VVIVENDNV, the IC50 is reported as 13200 nM.

Each sequence was assayed against HLA-A*68:02 (assay: IEDB peptide-MHC binding, purified MHC/competitive/radioactivity; ≥ and ≤ were set here for values at or beyond the usual limits of such assays). Details: source organism: Influenza A virus.
Sequence NTVSSFQV has an IC50 of 566 nM.
With NVLSIAPI the IC50 was 1330 nM.

Same assay, conditions: source organism: Mammarenavirus choriomeningitidis
For FSLGAAVKA, the IC50 was 1780 nM.

Same assay, conditions: source organism: Vaccinia virus WR
For ETQSGALEVL, the IC50 was 58 nM.
EVRYIDITNI was tested, and the IC50 was 41 nM.
With FTHTTAFFNT the IC50 was 1020 nM.
Work on IVPDIKLDA yielded an IC50 of 2890 nM.
In the case of IVQLPKRGV, the IC50 is reported as 4270 nM.
LVIRNEVNDT gave an IC50 of 854 nM.
QTVDFTDCRT showed an IC50 of 33 nM.
Sequence SAGFTATICL has an IC50 of 3880 nM.
STTGEWPLI showed an IC50 of 602 nM.
Sequence TTENAAYQV has an IC50 of 187 nM.
For TVDFTDCRT, the IC50 was 612 nM.
VVIVENDNV showed an IC50 of 967 nM.

Each sequence was assayed against HLA-A*02:06 in the same assay as above. Details: source organism: Hepacivirus hominis.
LLLGLLLLCV gave an IC50 of 5000 nM.

Same assay, conditions: source organism: Influenza A virus
In the case of NTVSSFQV, the IC50 is reported as 4480 nM.
For NVLSIAPI, the IC50 was 2340 nM.

Same assay, conditions: source organism: Mammarenavirus choriomeningitidis
Sequence FSLGAAVKA has an IC50 of 327 nM.

Same assay, conditions: source organism: Vaccinia virus WR
With DTDIVNNFIT the IC50 was 2310 nM.
Work on ETQSGALEVL yielded an IC50 of 1580 nM.
With EVRYIDITNI the IC50 was 4340 nM.
FANVISKIYT showed an IC50 of 1660 nM.
With FIDRGSIKI the IC50 was 4030 nM.
Work on FTHTTAFFNT yielded an IC50 of 51 nM.
Sequence FVVNGHTCM has an IC50 of 1810 nM.
GVLHTKFWI gave an IC50 of 417 nM.
With GVLPEETNI the IC50 was 573 nM.
IAGLKIEEI gave an IC50 of 1970 nM.
IIDLLLPST was tested, and the IC50 was 1120 nM.
Work on ITLILSNKL yielded an IC50 of 396 nM.
Work on IVPDIKLDA yielded an IC50 of 3430 nM.
Sequence IVQLPKRGV has an IC50 of 3120 nM.
Sequence KADAVVADL has an IC50 of 2210 nM.
Sequence KTEHCDDFM has an IC50 of 2520 nM.
With LALWDSNFFT the IC50 was 1250 nM.
In the case of LVIRNEVNDT, the IC50 is reported as 2170 nM.
With QTVDFTDCRT the IC50 was 3640 nM.
With SAGFTATICL the IC50 was 2410 nM.
Sequence STTGEWPLI has an IC50 of 1240 nM.
For TTENAAYQV, the IC50 was 442 nM.
TVDFTDCRT gave an IC50 of 339 nM.
In the case of VILPDKIDGL, the IC50 is reported as 240 nM.
Work on VVIVENDNV yielded an IC50 of 4300 nM.

What follows are sequences tested against HLA-A*02:01 in the same assay as above. Details: source organism: Hepacivirus hominis.
LLLGLLLLCV showed an IC50 of 2180 nM.

Same assay, conditions: source organism: Vaccinia virus WR
In the case of GVLHTKFWI, the IC50 is reported as 2700 nM.
KADAVVADL was tested, and the IC50 was 3960 nM.
Work on LALWDSNFFT yielded an IC50 of 815 nM.
VILPDKIDGL gave an IC50 of 1780 nM.
